Marks after values point to notes of the source that are not given here.

One may read the IC50 as the concentration that inhibits the measured activity by half.

Test in all cases: In vitro cytotoxic activity of ADCs
Type in all cases: cell-based

The test system of one assay is Karpas 299. The following applies: Table 6; Karpas 299 CD30+ CD70−. The protocol: (§1) The targeting antibody ligands cAC10 and h1F6 are described in U.S. Pat. […] cAC10-1006 and hF16-1006, referenced in the following tables, is the chimeric AC10 antibody and the humanized F16 antibody, respectively, conjugated to monomethyl auristatin E (MMAE) at its N terminus via a carbamate functional group to a val-cit-PABA self-immolative moiety having formula XVIII and was used as a control. The resultant ADCs were tested against multiple cell lines to determine in vitro activity, the results from which are summarized in Tables 5 and 6.

For the next assay, the system named is Caki-1. Conditions: Table 6; Caki-1 CD70+. The protocol: as §1
For a further assay, the system named is 786-0. The following applies: Table 6; 786-0 CD70+. The protocol: as §1
Another assay relates to L540cy. The following applies: Table 6; L540cy CD30+ CD70 (low). The protocol: as §1

B1: h1F6-1.3: h1F6 antibody (targets CD70+ cells) conjugated to auristatin E Drug-Linker compound 1.3 with MAC unit (conjugate, chains of the INN, looked up)
VH: QVQLVQSGAEVKKPGASVKVSCKASGYTFTNYGMNWVRQAPGQGLKWMGWINTYTGEPTYADAFKGRVTMTRDTSISTAYMELSRLRSDDTAVYYCARDYGDYGMDYWGQGTTVTVSS
VL: DIVMTQSPDSLAVSLGERATINCRASKSVSTSGYSFMHWYQQKPGQPPKLLIYLASNLESGVPDRFSGSGSGTDFTLTISSLQAEDVAVYYCQHSREVPWTFGQGTKVEIK
modifications: auristatin E drug-linker 1.3 with MAC unit
notes: h1F6 antibody (targets CD70+ cells) conjugated to auristatin E Drug-Linker compound 1.3 with MAC unit
For B1, the IC50 was greater than 1 µg/mL in the assay on Karpas 299, 0.019 µg/mL in the assay on Caki-1, >1000** ng/mL in the assay with 786-0 and >1000* ng/mL with L540cy.
